Experimental findings from US20210070811A1 (BOARD OF TRUSTEES OF MICHIGAN STATE UNIVERSITY, published 2021) are described below.

The series concerns the molecule itself. Briefly: circular dichroism of PilA19 with SDS at pH 3.8; 222 nm/208 nm intensity ratio of 1. (Circular dichroism is widely used to follow secondary structure.)

B1: PilA19 (truncated PilA pilin peptide of Geobacter sulfurreducens lacking the first 19 N-terminal amino acids of the mature PilA) (peptide)
peptide: AIPQFSAYRVKAYNSAASSDLRNLKTALESAFADDQTYPPES
notes: Recombinant peptide made in E. coli as a CBD-intein fusion and released by DTT-induced intein splicing; 42 residues; It self-assembles into a fibre; also called PilA19 peptide; recombinant PilA19
B1: the binding result is given as “binds”.
